# Measured values from patent US20100145008A1 (published 2010).
# B1: Lys_H8 (designed binder)
# chain: GSVKVKFVMCGEEKEVDTSKIITVKRTGKEVDFLYDDNGKNGYGTVYEKDAPKELLDMLARAEREKKL
# B2: Lys_B3 (designed binder)
# chain: GSVKVKFDLCGEEKEVDTSKIVYVARDGKTVLFMYDDNGKSGRGEVSEKDAPKELLDMLARAEREKKL
# B3: Lys_H4 (designed binder)
# chain: GSVKVKFFWNGEEKEVDTSKIVWVKRAGKCVLFIYDDNGKNGYGDVTEKDAPKELLDMLARAEREKKL
# Target: T1, lysozyme (Gallus gallus (Chicken), UniProt P00698 19-147)
# T1 construct: also called Lysozyme (14.3 kDa)
# Assay: Biacore, preliminary data
# T1 sequence (P00698 19-147 limits assumed, form in doubt): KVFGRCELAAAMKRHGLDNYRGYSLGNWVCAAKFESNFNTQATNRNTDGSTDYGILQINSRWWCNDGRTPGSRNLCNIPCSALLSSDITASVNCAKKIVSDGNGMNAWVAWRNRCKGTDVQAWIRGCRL
row,Binder,Kd
1,B1,~25 nM
2,B2,~15 nM
3,B3,~3 nM
